Test results: the nanobody polyreactivity screen of Harvey et al. (2022)

Assay: yeast display, Sf9 membrane polyspecificity reagent, FACS + sequencing; frameworks hold sequencing errors
Outline: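 Synthetic nanobody libraries on Saccharomyces cerevisiae BJ5465 were galactose-induced for 36–48 hours, stained 1 hour at 4 °C with 10% biotinylated, detergent-solubilized Sf9 membrane reagent and enriched on streptavidin microbeads. FACS then separated cells into low and high (top ~1%) gates by anti-HA (expression) and streptavidin (reagent binding) fluorescence. Genes were colony-PCR amplified, MiSeq 2 × 250 sequenced and CDR-length filtered. A clone's polyreactivity label is that of its gate of origin.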

| Sequence | polyreactivity (PSR sort gate) |
| --- | --- |
| QVQLVESGGGLVQAGGSLRLSCAASGLTFSHYAMGWYRQAPRKERELVAGISSRGGNTYYADSVKGRFTISRDNAKNTVYLQMNSLKPEDTAVYYCNAPKPKRAYDYWGQGTQVTVSS | high polyreactivity |
| QVQLVESGGGLVQAGGSLRLSCAASGLTFSIYAMGWYRQAPGKERELVASITSSGGSTYYADSVKGRFTISRDNAKNTVYLQMNSLKPEDTAVYYCATGRSRDYDYWGQGTQVTVSS | high polyreactivity |
| QVQLVESGGGLVQAGGSLRLSCAASGLTFSKNAMGWYRQAPGKEREVVATISYSSYRTNYADSVKGRFTISRDNANNPVYLQMNSLKPEDTAVYYCAARVSKGWPTHYDYWGQGTQVTVSS | high polyreactivity |
| QVQLVESGGGLVQAGGSLRLSCAASGLTFSKYAMGWYRQAPGQERELVAAITRGDRTYSADSVKGRFTISRDNAKNTVYLQMNSLKPEDTAVYYCAARQYYWGQGTQVTVSS | high polyreactivity |
| QVQLVESGGGLVQAGGSLRLSCAASGLTFSLYAMGWYRQAPGKERELVAAISWTGGSTYYADSVKGRFTISRDNAKNTVYLQMNSLKPEDTAVYYCNARYTLFARYCYDYWGQGPQVTVSS | low polyreactivity |
| QVQLVESGGGLVQAGGSLRLSCAASGLTFSRYAMGWYRQAPGKERELVAAITSIGGSTYYADSVKGRFTISRDNAKNTVYLQMNSLKPEDTAVYYCRAFFRRDYWGQGTQVTVSS | high polyreactivity |
| QVQLVESGGGLVQAGGSLRLSCAASGLTFSRYAMGWYRQAPGKERELVAAITWSGSSTYYADSVKGRFTISRDNAKNTVYLQMNILKQEDTAVYYCAARYGYSRGPYYRSDYWGQGTQVTVSS | high polyreactivity |
| QVQLVESGGGLVQAGGSLRLSCAASGLTFSTYAMGWYRQAPGKERELVAVIRRTGSTYYADSVKGRFTISRDNAKNTVYLQMNSLKPEDTAVYYCATARRHVSGYDYWGQGTQVTVSS | high polyreactivity |
| QVQLVESGGGLVQAGGSLRLSCAASGLTFSWYAMGWYRQAPGKEREFVATISASGGSTYYADSVKGRFTISRDNAKNTVYLQMNSLKPEDTAVYYCNAIYFRYRNGGYDYWGQGTQVTVSS | high polyreactivity |
| QVQLVESGGGLVQAGGSLRLSCAASGLTFTINAMGWYRQAPGKERELVAAITGNNTSTYYADSVKGRFTISRDNAKNTVYLQMNSLKPEDTAVYYCAASVYHYGPLYYWGQGTQVTVSS | low polyreactivity |
| QVQLVESGGGLVQAGGSLRLSCAASGLTFTLNAMGRYRQATGKERELVATISQDGGGTTYADSVKGRFTISRDNAKNTVYLQMNSLKPEDTAVYYCATTLPPSVWGEWSGTRYPYDYWGQGTQVTVSS | low polyreactivity |
| QVQLVESGGGLVQAGGSLRLSCAASGLTFTNYAMGWYRQAPGKELELVAAISSSGSDTYYADSVKGRFTISRDNAKNTVYLQMNSLKPEDTAVYYCAAVLTALSPDFEYEYWGQGTQVTVSS | low polyreactivity |
| QVQLVESGGGLVQAGGSLRLSCAASGLTFTQYAMGWYRQAPGKERELVAAITSGGRTYYADSVKGRFTISRDNAKNTVYLQMNSLKPEDTAVYYCAADRRYVDAYHFGYWGQGTQVTVSS | high polyreactivity |
| QVQLVESGGGLVQAGGSLRLSCAASGLTFTTYAMGWYIPAPGKDRELVSAINYRGTSSYYADSVKGRFTISRDNAKKTVYLQINSLKPEDTAVYYCNARQTRSSRINYAEGIYNFWGQGTQVTVSS | high polyreactivity |
| QVQLVESGGGLVQAGGSLRLSCAASGLTFTVNAMGWYRQAPGKERELVARIRNSGGRTYYADSVKGRFTISRDNAKNTVYLQMNSLKPEDTAVYYCAARRYYYQVGYDYWGQGTQVTVSS | high polyreactivity |
| QVQLVESGGGLVQAGGSLRLSCAASGLTFTVYTMVWYRQAPGKERELVATNSWSDGRTYYADSVKGRFTISRDNAKNTVYLQMNSVKPEDTAVYYCATESITWYYFKHEYWGQGTQVTVSS | high polyreactivity |

| Sequence | polyreactivity (PSR sort gate) |
| --- | --- |
| QVQLVESGGGLVQAGGSLRLSCAASGLTFVANAMGWYSQAPGKERELVARISSSGGSTYYADSVKGRFTISRDNAKNTVYLQMNSLKPEDTAVYYCASSQSGGYDYWGQGTQVTVSS | high polyreactivity |
| QVQLVESGGGLVQAGGSLRLSCAASGLTFVDYAMGWYRQAPGKERELVAAITSSGGSITYYADSVKGRFTISRDNAKNTVYSQMNSLKPEDTAVYYCNADYGIYTDSFRGPDYESWGQGTQVTVSS | low polyreactivity |
| QVQLVESGGGLVQAGGSLRLSCAASGLTFVNSTMGWYRQAPGKEWEFVAAITSSGGSSTYYADSVKGRFTISRDNAKNTVYLQMNSLKPEDTAVYDCAAGFSRYVDIVILTVYTGDYWGQGTQVTVSS | low polyreactivity |
| QVQLVESGGGLVQAGGSLRLSCAASGLTFVRYAMGWYRQAPGKERELVAAITTRGGSTYYADSVKGRFTISRDNAKNTVYLQMNSLKPEDTAVFYCNADRVTSSSVRYDYWGQGTQVTVSS | high polyreactivity |
| QVQLVESGGGLVQAGGSLRLSCAASGLTFVSYAMGWYRQAPGKERELVAAISYGGGSTNYADSVKGRFTISRDNAKNTVDLQMNSLKPEDTAVYYCAAEPGYYDEYGYWGQGTQVTVSS | low polyreactivity |
| QVQLVESGGGLVQAGGSLRLSCAASGLTFVYNDMGWYRQAPGKERELVAGITSGGSTSYADSVKGRFTISRDNAKNTVYLQMNSLKPEDTAVYYCAAGVYALRRDYWGQGTQVTVSS | low polyreactivity |
| QVQLVESGGGLVQAGGSLRLSCAASGLTFVYNDMGWYRQAPGKERELVAGITSGGSTYYADSVKGRFTISRDNAKNTVYLQMNSLKPEDTAVYYCAADGLSTDLFRPDSIVDYWGQGTQVTVSS | low polyreactivity |
| QVQLVESGGGLVQAGGSLRLSCAASGLTFVYYAMGWFRQAPGKERELVAAISRGGTTYYADSVKGRFTISRDNAKNTVYLQMNSLKPEETAVYYCNAARYGFGSAYDYWGQGTQGTVSS | high polyreactivity |
| QVQLVESGGGLVQAGGSLRLSCAASGLTFVYYAMGWYRQAPGKERELVAAISSGGSTYYADSVKGRFTISRDNAKNTVYLQMNSLKPEDTAVYYCAATYSSFRRYPGAHYRFGYWGQGTQVTVSS | high polyreactivity |
| QVQLVESGGGLVQAGGSLRLSCAASGLTFVYYAMGWYRQAPGKERELVASIDYSGSSTYYADSVKGRFTISRDNSKNTVYLQMNSLKPEDTAVYYCAATDSGEYWGQGTQVTVSS | low polyreactivity |
| QVQLVESGGGLVQAGGSLRLSCAASGLTFWANTMGWCRQAPGKEREFVAAITWSGGSTYYADSVKGRFTISRDNAKNTVNLQMNSLKPEDTAVYYCAADEDFAAGYSYYYWGQGSQVTVSS | low polyreactivity |
| QVQLVESGGGLVQAGGSLRLSCAASGLTFWAYAMGWYRQAPGKEREFVAAISWSGDSTYYADSVKGRFTISRDNAKNTVYLQMNSLKPEDTAVYYCAAEWYYVYIAPYDYWGQGTQVTVSS | low polyreactivity |
| QVQLVESGGGLVQAGGSLRLSCAASGLTFWGYAMGWYRQAPGKEREFVASISSGGGSTYYADSVKGRFTMSRDNAKNTVYLQMNSLKPEDTAVYYCNAYRTKYRNQYTYATFDYWGQGTQVTVSS | low polyreactivity |
| QVQLVESGGGLVQAGGSLRLSCAASGLTFWSYAMGWYRQAPGKERELVAAISSGGRTYYADSVKGRFTISRDNAKNTVYLQMNSLKPEDTAVYYCNARSRRGPTKDDYWGQGTQVTVSS | high polyreactivity |
| QVQLVESGGGLVQAGGSLRLSCAASGLTFYAYAMGWYRQAPGKERELVAAISSRGGRTYYADSVKGRFTISRDNAKNTVYLQMNRLKPEDTAVYYCAARIYRYDTTVVPRYDYWGQGTQVTVSS | high polyreactivity |
